B1: Keratin, type I cuticular Ha8 (Homo sapiens), O76015 (parent)
chain: MTSSYSSSSCPLGCTMAPGARNVSVSPIDIGCQPGAEANIAPMCLLANVAHANRVRVGSTPLGRPSLCLPPTCHTACPLPGTCHIPGNIGICGAYGENTLNGHEKETMQFLNDRLANYLEKVRQLEQENAELEATLLERSKCHESTVCPDYQSYFHTIEELQQKILCSKAENARLIVQIDNAKLAADDFRIKLESERSLRQLVEADKCGTQKLLDDATLAKADLEAQQESLKEEQLSLKSNHEQEVKILRSQLGEKLRIELDIEPTIDLNRVLGEMRAQYEAMLETNRQDVEQWFQAQSEGISLQDMSCSEELQCCQSEILELRCTVNALEVERQAQHTLKDCLQNSLCEAEDRFGTELAQMQSLISNVEEQLSEIRADLERQNQEYQVLLDVKTRLENEIATYRNLLESEDCKLPCNPCSTSPSCVTAPCAPRPSCGPCTTCGPTCGASTTGSRF
B2: FAST kinase domain-containing protein 5, mitochondrial (Homo sapiens), Q7L8L6 (parent)
chain: MAATLKSLKLVRYRAFCSPSAFGAVRSVSYWNVSSTQHGGQDPPEHISLCHSAKKVKNICSTFSSRRILTTSSAHPGLEFSKTSSSKASTLQLGSPRATGVDEEDVEVFDSFENMRVFLQLRPEYRVHSYNASETSQLLSVSEGELILHKVRVNQNNLQAQVIVDYLCKLSSLPAEQHPVLLGSTSFALLCQLSVKKIQLFDTQDLINVLKAFVILGIPHSHSMLDVYETKCCHQVWEMNMDQLLLVADLWRYLGRKVPRFLNIFSSYLNLHWKDLSLSQLVHLIYVIGENRQVSQDLMQKLESLILKYIDLINLEEVGTICLGFFKSSTNLSEFVMRKIGDLACANIQHLSSRSLVNIVKMFRFTHVDHINFMKQIGEIAPQRIPSLGVQGVMHLTLYCSALRFLNEGVMNAVAASLPPRVAHCRSKDVAKILWSFGTLNYKPPNAEEFYSSLISEIHRKMPEFNQYPEHLPTCLLGLAFLEYFPVELIDFALSPGFVRLAQERTKFDLLKELYTLDGTVGIECPDYRGNRLSTHLQQEGSELLWYLAEKDMNSKPEFLETVFLLETMLGGPQYVKHHMILPHTRSSDLEVQLDVNLKPLPFNREATPAENVAKLRLEHVGVSLTDDLMNKLLKGKARGHFQGKTESEPGQQPMELENKAAVPLGGFLCNVADKSGAMEMAGLCPAACMQTPRMKLAVQFTNRNQYCYGSRDLLGLHNMKRRQLARLGYRVVELSYWEWLPLLKRTRLEKLAFLHEKVFTSAL
partner: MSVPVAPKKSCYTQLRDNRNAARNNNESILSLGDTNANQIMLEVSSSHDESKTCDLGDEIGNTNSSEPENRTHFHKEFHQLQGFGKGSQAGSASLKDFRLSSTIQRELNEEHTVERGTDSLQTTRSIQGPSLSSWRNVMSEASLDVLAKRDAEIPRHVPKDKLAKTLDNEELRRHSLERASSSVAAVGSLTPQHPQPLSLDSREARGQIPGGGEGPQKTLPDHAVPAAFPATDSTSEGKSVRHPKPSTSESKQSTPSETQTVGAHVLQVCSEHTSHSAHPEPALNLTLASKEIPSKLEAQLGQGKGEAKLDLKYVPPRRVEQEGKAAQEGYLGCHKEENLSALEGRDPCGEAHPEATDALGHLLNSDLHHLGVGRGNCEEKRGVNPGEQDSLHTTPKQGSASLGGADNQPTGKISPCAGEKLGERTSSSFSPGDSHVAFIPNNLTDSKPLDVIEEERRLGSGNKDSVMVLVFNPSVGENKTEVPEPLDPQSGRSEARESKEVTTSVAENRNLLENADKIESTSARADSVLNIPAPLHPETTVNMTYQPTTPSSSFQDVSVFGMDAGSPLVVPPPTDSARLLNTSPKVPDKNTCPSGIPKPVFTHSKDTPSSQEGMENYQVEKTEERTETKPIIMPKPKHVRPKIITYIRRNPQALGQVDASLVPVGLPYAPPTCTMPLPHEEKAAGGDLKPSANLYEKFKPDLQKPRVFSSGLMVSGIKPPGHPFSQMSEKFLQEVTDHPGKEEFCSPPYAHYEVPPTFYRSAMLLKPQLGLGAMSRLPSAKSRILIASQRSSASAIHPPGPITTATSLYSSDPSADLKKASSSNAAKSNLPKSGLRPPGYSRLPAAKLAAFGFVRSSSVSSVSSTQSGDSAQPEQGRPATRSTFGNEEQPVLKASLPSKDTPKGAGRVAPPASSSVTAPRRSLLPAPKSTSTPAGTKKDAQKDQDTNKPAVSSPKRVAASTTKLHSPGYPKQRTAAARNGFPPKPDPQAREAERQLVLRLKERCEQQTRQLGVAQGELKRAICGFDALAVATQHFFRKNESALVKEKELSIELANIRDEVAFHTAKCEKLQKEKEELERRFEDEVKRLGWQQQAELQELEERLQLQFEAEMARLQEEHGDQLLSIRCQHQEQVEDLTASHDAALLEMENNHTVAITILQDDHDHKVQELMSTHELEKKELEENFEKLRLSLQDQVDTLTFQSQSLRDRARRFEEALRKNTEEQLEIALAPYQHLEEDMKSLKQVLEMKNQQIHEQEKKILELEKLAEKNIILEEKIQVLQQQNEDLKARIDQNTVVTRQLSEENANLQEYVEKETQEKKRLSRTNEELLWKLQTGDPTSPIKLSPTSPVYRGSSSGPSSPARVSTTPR
B3: Ribosome assembly protein METTL17, mitochondrial (Homo sapiens), Q9H7H0 (parent)
chain: MAAALKCLLTLGRWCPGLGVAPQARALAALVPGVTQVDNKSGFLQKRPHRQHPGILKLPHVRLPQALANGAQLLLLGSAGPTMENQVQTLTSYLWSRHLPVEPEELQRRARHLEKKFLENPDLSQTEEKLRGAVLHALRKTTYHWQELSYTEGLSLVYMAARLDGGFAAVSRAFHEIRARNPAFQPQTLMDFGSGTGSVTWAAHSIWGQSLREYMCVDRSAAMLVLAEKLLKGGSESGEPYIPGVFFRQFLPVSPKVQFDVVVSAFSLSELPSKADRTEVVQTLWRKTGHFLVLVENGTKAGHSLLMDARDLVLKGKEKSPLDPRPGFVFAPCPHELPCPQLTNLACSFSQAYHPIPFSWNKKPKEEKFSMVILARGSPEEAHRWPRITQPVLKRPRHVHCHLCCPDGHMQHAVLTARRHGRDLYRCARVSSWGDLLPVLTPSAFPPSTAQDPSES
partner: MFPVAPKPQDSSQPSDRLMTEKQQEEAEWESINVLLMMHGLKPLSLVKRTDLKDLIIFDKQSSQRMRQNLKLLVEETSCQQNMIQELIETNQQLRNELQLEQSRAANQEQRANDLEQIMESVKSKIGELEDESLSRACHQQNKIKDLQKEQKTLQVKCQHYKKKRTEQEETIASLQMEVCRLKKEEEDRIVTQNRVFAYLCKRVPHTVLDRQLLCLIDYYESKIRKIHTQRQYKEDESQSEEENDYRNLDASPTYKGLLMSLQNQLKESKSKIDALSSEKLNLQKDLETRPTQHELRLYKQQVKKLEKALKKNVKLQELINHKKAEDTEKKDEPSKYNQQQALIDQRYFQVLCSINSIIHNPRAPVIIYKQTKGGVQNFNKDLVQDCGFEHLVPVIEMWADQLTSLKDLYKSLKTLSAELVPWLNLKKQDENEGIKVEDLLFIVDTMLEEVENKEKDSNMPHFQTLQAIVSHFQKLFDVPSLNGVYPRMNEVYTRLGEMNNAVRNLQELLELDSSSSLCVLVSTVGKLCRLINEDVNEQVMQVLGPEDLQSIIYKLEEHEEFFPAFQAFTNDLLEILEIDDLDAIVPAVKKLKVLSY
B4: Ligand of Numb protein X 2 (Homo sapiens), Q8N448 (parent)
chain: MGTTSDEMVSVEQTSSSSLNPLCFECGQQHWTRENHLYNYQNEVDDDLVCHICLQPLLQPLDTPCGHTFCYKCLRNFLQEKDFCPLDRKRLHFKLCKKSSILVHKLLDKLLVLCPFSSVCKDVMQRCDLEAHLKNRCPGASHRRVALERRKTSRTQAEIENENGPTLLDPAGTLSPEADCLGTGAVPVERHLTSASLSTWSEEPGLDNPAFEESAGADTTQQPLSLPEGEITTIEIHRSNPYIQLGISIVGGNETPLINIVIQEVYRDGVIARDGRLLAGDQILQVNNYNISNVSHNYARAVLSQPCNTLHLTVLRERRFGNRAHNHSDSNSPREEIFQVALHKRDSGEQLGIKLVRRTDEPGVFILDLLEGGLAAQDGRLSSNDRVLAINGHDLKYGTPELAAQIIQASGERVNLTIARPGKPQPGNTIREAGNHSSSSQHHTPPPYYSRPSSHKDLTQCVTCQEKHITVKKEPHESLGMTVAGGRGSKSGELPIFVTSVPPHGCLARDGRIKRGDVLLNINGIDLTNLSHSEAVAMLKASAASPAVALKALEVQIVEEATQNAEEQPSTFSENEYDASWSPSWVMWLGLPSTLHSCHDIVLRRSYLGSWGFSIVGGYEENHTNQPFFIKTIVLGTPAYYDGRLKCGDMIVAVNGLSTVGMSHSALVPMLKEQRNKVTLTVICWPGSLV
partner: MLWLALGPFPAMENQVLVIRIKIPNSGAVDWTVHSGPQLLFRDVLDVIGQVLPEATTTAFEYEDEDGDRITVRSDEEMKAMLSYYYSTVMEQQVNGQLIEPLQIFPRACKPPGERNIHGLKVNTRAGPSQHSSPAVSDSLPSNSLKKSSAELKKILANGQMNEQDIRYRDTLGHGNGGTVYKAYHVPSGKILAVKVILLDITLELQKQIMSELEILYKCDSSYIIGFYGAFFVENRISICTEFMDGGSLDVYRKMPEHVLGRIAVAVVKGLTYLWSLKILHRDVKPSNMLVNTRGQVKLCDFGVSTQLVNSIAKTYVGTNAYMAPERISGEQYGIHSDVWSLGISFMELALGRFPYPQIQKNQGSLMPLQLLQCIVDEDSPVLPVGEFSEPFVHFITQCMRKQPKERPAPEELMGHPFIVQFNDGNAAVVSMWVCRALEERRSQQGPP
B5: Keratin, type I cuticular Ha8 (Homo sapiens), O76015 (parent)
chain: B1 chain
partner: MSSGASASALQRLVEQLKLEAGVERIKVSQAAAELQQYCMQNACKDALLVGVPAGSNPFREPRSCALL

Variants of: B1
Conditions: with k22e_human KRT2, P35908
Chain of k22e_human KRT2, P35908 (P35908 whole entry): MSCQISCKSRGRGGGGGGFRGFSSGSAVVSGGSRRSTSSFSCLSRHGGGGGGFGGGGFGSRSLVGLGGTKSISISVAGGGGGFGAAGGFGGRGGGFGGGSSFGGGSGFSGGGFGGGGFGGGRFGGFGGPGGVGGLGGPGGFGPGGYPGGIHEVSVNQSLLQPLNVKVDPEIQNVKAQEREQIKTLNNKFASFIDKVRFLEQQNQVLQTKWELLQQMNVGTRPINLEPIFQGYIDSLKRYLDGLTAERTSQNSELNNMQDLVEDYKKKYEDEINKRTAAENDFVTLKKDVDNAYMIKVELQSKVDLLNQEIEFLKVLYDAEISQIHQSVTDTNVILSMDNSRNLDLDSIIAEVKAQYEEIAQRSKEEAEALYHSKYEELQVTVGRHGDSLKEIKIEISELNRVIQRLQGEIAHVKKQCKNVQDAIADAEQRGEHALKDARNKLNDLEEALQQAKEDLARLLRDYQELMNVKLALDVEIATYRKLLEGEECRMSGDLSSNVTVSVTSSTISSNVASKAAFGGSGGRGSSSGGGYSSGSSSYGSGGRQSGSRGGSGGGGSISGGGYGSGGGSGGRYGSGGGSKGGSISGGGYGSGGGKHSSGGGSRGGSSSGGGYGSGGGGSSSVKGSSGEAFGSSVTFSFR

Row | Variant | effect of a mutation on the interaction
1 | D306A | with no effect

Variants of: B1
Conditions: with txnd5_human TXNDC5, Q8NBS9
Chain of txnd5_human TXNDC5, Q8NBS9 (Q8NBS9 whole entry): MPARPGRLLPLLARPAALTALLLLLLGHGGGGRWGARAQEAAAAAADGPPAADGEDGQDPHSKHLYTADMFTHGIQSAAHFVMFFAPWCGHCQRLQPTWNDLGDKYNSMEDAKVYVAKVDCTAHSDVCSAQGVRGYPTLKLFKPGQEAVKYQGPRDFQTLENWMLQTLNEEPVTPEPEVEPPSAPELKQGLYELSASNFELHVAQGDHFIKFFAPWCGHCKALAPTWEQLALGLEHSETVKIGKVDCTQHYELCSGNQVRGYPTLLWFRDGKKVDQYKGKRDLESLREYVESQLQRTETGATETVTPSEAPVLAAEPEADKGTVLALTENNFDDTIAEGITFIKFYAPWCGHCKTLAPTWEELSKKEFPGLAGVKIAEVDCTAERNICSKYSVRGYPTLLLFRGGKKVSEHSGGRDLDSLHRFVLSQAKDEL

Row | Variant | effect of a mutation on the interaction
2 | D306A | with no effect

Variants of: B1
Conditions: with prs8_human PSMC5, P62195
Chain of prs8_human PSMC5, P62195 (P62195 whole entry): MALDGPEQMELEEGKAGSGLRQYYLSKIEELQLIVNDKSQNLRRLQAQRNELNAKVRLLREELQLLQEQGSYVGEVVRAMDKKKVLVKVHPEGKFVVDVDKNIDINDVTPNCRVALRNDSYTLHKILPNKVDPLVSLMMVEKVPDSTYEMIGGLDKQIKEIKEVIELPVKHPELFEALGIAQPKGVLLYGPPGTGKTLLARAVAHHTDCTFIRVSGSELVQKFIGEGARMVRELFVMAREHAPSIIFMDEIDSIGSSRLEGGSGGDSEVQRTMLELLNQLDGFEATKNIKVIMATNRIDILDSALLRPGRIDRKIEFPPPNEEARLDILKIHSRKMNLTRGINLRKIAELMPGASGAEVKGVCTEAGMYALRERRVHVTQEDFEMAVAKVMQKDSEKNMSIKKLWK

Row | Variant | effect of a mutation on the interaction
3 | D306A | with no effect

Variants of: B1
Conditions: with p85b_human PIK3R2, O00459
Chain of p85b_human PIK3R2, O00459 (O00459 whole entry): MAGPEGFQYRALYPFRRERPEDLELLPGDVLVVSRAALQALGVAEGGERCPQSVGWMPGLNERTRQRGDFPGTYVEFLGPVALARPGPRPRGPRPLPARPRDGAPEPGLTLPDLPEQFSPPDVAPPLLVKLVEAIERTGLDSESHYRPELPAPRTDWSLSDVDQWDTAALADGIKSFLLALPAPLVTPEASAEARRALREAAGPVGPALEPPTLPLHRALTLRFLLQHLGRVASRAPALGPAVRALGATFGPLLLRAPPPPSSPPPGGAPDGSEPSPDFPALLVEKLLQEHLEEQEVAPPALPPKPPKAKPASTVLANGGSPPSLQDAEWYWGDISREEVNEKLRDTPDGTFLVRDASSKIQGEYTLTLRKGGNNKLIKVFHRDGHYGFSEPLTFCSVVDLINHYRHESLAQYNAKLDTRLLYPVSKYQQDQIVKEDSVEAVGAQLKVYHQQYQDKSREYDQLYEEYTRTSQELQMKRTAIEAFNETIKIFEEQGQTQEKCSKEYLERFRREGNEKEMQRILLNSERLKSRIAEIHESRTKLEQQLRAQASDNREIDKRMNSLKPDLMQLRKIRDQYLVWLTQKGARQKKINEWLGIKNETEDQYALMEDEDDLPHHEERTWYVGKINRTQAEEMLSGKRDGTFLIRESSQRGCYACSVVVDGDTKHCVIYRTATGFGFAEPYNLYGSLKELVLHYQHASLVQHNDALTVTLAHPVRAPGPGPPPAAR

Row | Variant | effect of a mutation on the interaction
4 | D306A | with no effect

Variants of: B1
Conditions: with KRT6A

Row | Variant | effect of a mutation on the interaction
5 | D306A | with no effect

Variants of: B1
Conditions: with k2c4_human KRT4, P19013
Chain of k2c4_human KRT4, P19013 (P19013 whole entry): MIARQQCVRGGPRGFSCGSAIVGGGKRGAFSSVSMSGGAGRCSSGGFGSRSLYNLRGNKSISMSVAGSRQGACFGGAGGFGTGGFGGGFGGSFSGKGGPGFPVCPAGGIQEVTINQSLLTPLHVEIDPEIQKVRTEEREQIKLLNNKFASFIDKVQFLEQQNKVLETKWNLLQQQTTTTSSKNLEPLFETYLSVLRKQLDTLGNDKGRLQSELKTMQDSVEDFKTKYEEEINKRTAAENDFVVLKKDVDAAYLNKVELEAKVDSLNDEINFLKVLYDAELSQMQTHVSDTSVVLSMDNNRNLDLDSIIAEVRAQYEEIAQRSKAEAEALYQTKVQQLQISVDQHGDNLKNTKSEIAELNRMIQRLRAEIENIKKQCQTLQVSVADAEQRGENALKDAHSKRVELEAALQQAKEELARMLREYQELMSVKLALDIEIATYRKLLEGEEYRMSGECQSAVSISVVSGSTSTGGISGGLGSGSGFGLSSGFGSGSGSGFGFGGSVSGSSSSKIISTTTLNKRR

Row | Variant | effect of a mutation on the interaction
6 | D306A | with no effect

Variants of: B1
Conditions: with txlnb_human TXLNB

Row | Variant | effect of a mutation on the interaction
7 | D306A | with no effect

Variants of: B1
Conditions: with KRT79, Q5XKE5
Chain of KRT79, Q5XKE5 (Q5XKE5 whole entry): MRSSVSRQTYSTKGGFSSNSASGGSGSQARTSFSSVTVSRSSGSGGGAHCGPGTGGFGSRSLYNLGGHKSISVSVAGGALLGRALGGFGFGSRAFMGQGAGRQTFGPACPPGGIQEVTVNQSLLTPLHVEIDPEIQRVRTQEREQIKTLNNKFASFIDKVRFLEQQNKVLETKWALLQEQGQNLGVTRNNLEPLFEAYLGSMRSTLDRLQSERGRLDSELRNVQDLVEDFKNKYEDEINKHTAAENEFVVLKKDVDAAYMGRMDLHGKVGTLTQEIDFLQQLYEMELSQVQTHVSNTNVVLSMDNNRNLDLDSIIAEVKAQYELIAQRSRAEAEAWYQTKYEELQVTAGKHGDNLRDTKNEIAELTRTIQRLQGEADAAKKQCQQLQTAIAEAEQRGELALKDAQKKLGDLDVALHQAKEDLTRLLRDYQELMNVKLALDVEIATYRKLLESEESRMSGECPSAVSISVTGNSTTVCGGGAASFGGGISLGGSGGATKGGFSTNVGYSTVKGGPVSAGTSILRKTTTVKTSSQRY

Row | Variant | effect of a mutation on the interaction
8 | D306A | with no effect

Variants of: B1
Conditions: with txlna_human TXLNA

Row | Variant | effect of a mutation on the interaction
9 | D306A | with no effect

Variants of: B2
Conditions: with mtus2_human MTUS2, Q5JR59

Row | Variant | effect of a mutation on the interaction
10 | E483D | with no effect

Variants of: B3
Conditions: with cep70_human CEP70, Q8NHQ1

Row | Variant | effect of a mutation on the interaction
11 | R212H | with no effect

Variants of: B4
Conditions: with mp2k5_human MAP2K5, Q13163

Row | Variant | effect of a mutation on the interaction
12 | P669A | with no effect

Variants of: B5
Conditions: with gbg10_human GNG10, P50151

Row | Variant | effect of a mutation on the interaction
13 | N270K | with no effect
